Target: phi3T_93 (Bacillus subtilis phage phi3T)
Assay: SEC-MALS; 20 µl at 1 mg/ml on Shodex KW-402.5-4F, 100 mM HEPES pH 7.5, 250 mM NaCl, 0.3 ml/min

Substance: phi3T_93 (natural protein)
- stoichiometry N: 2
